Measurements published in patent US20210009663A1 (published 2021).

B1: mAb 8 (antibody, V domains shown)
VH: EVQLLESGGGLVQPGGSLRLSCAASGFSFSTYSMHWVRQAPGKGLEWVSAISGEGDSAYYADSVKGRFTISRDNSKNTLYLQMNKVRAEDTAVYYCVGGYSNFYYYYTMDAWGQGTMVTVSS
VL: DIVMTQSPASLSLSPGERATLSCRATQSISTFLAWYQQKPGQAPRLLIYDASTRASGIPARFSGSRSGTDFTLTITRLEPEDFAVYYCQQRYNWPPYSFGQGTKLEIK
B2: fusion loop targeting pan-flavivirus antibody 4G2 (antibody, V domains shown)
VH: EVQLQQSGPELVKPGTSVKISCKTSGYTFTEYTIHWVKQSHGKSLAWIGGIDPNSGGTNYSPNFKGKATLTVDKSSSTAYMDLRSLSSEDSAVYFCARIYHYDGYFDVWGAGTAVTVSS
VL: DIKMTQSPSSMYASLGERVTITCKASQDINSYLTWFQQKPGKSPKTLIYRANRLIDGVPSRFSGSGSGQDYSLTISSLDYEDMGIYYCLQYDEFPPTFGGGTKLEIKR

Legend:
[1] = molecular target: T1, Zika virus envelope protein, strain H/PF/2013 (French Polynesia 2013) (Zika virus); assay: cell-based or functional assay
T1 sequence (A0A024B7W1 291-794): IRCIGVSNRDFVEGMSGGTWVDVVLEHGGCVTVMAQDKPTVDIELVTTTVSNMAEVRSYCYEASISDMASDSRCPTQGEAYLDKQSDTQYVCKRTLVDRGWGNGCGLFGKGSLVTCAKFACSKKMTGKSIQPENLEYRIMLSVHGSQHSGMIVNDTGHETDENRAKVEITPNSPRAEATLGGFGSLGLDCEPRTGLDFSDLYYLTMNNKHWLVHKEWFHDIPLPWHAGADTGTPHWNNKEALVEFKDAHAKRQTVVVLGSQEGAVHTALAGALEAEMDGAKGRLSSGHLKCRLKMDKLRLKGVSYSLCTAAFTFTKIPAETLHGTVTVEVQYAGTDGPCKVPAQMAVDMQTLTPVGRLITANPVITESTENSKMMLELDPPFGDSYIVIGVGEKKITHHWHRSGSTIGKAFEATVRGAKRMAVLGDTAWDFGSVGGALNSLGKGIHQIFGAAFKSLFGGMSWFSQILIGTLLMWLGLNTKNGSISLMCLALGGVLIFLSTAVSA

[2] = molecular target: T1, Zika virus envelope protein, strain …

Binder	ADE in THP1.2S cells, viral titers at peak enhancement [1] [fold]	PRNT50 [1] [µg/mL]	Kd [2] [µg/mL]
B1	≥ 3	5.09	
B2			10.3
